{
  "source": "paper PMC3945083",
  "binders": {"B1": {"name": "WT NQO1-ARE (dsDNA)", "DNA 1": "AAATCGCAGTCACAGTGACTCAGCAGAATCTGAGCCTAGGG", "DNA 2": "CCCTAGGCTCAGATTCTGCTGAGTCACTGTGACTGCGATTT"}},
  "key": {"PARP-1 (purified)": {"molecular_target": "PARP-1 (purified) (UniProt P09874 1-1014)", "sequence (P09874 whole entry)": "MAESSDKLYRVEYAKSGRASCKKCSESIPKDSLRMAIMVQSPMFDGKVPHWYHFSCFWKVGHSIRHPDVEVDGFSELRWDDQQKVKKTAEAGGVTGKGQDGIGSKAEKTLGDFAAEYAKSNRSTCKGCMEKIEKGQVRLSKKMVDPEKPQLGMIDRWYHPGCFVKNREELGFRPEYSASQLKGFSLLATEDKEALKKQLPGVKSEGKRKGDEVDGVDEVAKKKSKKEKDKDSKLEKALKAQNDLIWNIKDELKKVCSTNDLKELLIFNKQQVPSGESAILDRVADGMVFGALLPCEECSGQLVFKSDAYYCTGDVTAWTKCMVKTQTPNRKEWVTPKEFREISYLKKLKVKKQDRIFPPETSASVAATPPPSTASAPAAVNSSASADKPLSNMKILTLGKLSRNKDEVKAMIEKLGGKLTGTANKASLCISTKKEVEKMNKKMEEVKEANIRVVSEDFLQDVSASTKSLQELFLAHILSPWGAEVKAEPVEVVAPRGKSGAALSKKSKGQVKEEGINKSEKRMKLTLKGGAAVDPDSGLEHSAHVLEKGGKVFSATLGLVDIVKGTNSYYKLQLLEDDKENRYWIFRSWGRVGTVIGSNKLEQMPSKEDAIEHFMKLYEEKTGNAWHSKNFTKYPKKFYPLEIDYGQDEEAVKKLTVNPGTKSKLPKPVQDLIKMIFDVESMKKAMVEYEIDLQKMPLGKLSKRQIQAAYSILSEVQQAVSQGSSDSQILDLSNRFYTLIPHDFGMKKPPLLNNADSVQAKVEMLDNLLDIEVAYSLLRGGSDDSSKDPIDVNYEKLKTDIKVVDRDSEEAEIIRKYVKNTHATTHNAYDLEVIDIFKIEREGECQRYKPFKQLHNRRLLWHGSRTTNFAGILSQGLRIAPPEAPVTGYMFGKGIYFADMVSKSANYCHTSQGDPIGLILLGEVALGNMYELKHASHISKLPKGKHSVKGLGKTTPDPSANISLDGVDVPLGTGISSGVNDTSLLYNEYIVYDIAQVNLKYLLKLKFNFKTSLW", "experiment": "pull-down"}, "Flag-PARP-1": {"molecular_target": "Flag-PARP-1 (UniProt P09874 1-1014)", "sequence (P09874 whole entry)": "as above", "experiment": "EMSA"}},
  "data": [
    {"binder": "B1", "values": [
      {"measurement": "binding result", "setting": "PARP-1 (purified)", "value": "binds"},
      {"measurement": "binding result", "setting": "Flag-PARP-1", "value": "binds"}
    ]}
  ]
}
